These results are taken from IntAct's records for PubMed 24613396.

B1: F-box only protein 11 (Homo sapiens), Q86XK2 (parent)
chain: MNSVRAANRRPRRVSRPRPVQQQQQQPPQQPPPQPPQQQPPQQQPPPPPQQQQQQQPPPPPPPPPPLPQERNNVGERDDDVPADMVAEESGPGAQNSPYQLRRKTLLPKRTACPTKNSMEGASTSTTENFGHRAKRARVSGKSQDLSAAPAEQYLQEKLPDEVVLKIFSYLLEQDLCRAACVCKRFSELANDPILWKRLYMEVFEYTRPMMHPEPGKFYQINPEEYEHPNPWKESFQQLYKGAHVKPGFAEHFYSNPARYKGRENMLYYDTIEDALGGVQEAHFDGLIFVHSGIYTDEWIYIESPITMIGAAPGKVADKVIIENTRDSTFVFMEGSEDAYVGYMTIRFNPDDKSAQHHNAHHCLEITVNCSPIIDHCIIRSTCTVGSAVCVSGQGACPTIKHCNISDCENVGLYITDHAQGIYEDNEISNNALAGIWVKNHGNPIIRRNHIHHGRDVGVFTFDHGMGYFESCNIHRNRIAGFEVKAYANPTVVRCEIHHGQTGGIYVHEKGRGQFIENKIYANNFAGVWITSNSDPTIRGNSIFNGNQGGVYIFGDGRGLIEGNDIYGNALAGIQIRTNSCPIVRHNKIHDGQHGGIYVHEKGQGVIEENEVYSNTLAGVWVTTGSTPVLRRNRIHSGKQVGVYFYDNGHGVLEDNDIYNHMYSGVQIRTGSNPKIRRNKIWGGQNGGILVYNSGLGCIEDNEIFDNAMAGVWIKTDSNPTLRRNKIHDGRDGGICIFNGGRGLLEENDIFRNAQAGVLISTNSHPILRKNRIFDGFAAGIEITNHATATLEGNQIFNNRFGGLFLASGVNVTMKDNKIMNNQDAIEKAVSRGQCLYKISSYTSYPMHDFYRCHTCNTTDRNAICVNCIKKCHQGHDVEFIRHDRFFCDCGAGTLSNPCTLAGEPTHDTDTLYDSAPPIESNTLQHN

In this test the parent is B1. As to conditions: with prdm1_human PRDM1, O75626.
Sequence of prdm1_human PRDM1, O75626 (O75626 whole entry): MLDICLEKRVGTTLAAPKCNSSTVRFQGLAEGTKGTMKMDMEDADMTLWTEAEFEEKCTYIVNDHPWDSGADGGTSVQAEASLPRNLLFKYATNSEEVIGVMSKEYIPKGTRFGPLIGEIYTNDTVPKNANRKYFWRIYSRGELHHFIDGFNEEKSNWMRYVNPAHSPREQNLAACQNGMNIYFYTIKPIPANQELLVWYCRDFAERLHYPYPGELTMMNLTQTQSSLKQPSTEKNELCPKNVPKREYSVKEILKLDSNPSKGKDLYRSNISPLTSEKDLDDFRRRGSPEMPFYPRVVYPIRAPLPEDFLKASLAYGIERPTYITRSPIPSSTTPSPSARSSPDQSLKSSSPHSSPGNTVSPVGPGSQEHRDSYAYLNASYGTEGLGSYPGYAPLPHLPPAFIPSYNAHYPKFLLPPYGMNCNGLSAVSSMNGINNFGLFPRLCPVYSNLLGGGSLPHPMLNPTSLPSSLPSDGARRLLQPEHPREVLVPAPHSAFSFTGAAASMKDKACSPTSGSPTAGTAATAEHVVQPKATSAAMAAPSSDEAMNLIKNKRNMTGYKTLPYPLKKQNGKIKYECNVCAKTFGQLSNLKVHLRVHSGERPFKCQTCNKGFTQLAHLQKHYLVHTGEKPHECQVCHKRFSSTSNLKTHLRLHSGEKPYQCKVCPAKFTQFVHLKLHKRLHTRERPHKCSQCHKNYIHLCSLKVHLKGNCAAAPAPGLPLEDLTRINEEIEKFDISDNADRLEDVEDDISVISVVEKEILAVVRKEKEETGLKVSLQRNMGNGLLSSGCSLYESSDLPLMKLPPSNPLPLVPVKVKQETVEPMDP
With Q575L, the “effect of a mutation on the interaction” value was “disrupting interaction strength”.
